What is called IC50 is the concentration at which inhibition is half-maximal.

Like-named read-outs stand apart in the source and are kept apart here.

Here are results for eight molecules from patent publication US20250121075A1, “ALPHA-FETOPROTEIN BIOCONJUGATES FOR DISEASE TREATMENT” (priority 2021, published 2025).

Holding throughout (type): cell-based, human
One assay relates to COLO-205 cells. Description: CellTiter-Glo cell viability, 72 hours. The settings on record: Homo sapiens. The method, then: Turning to Table 5, two bioconjugates of each of AFP-ABZ982 and AFP-ABZ1827 (4 in total) were prepared at DPRs of approximately 4 (“low DPR”) and 6 (“high DPR”) for efficacy testing in vivo in the COLO-205 human tumor xenograft model. Potency in the COLO-205 cell line prior to implantation was assessed. Briefly, 96 well plates were seeded with COLO-205 cells either at 5,000 or 2,500 cells per well in a total volume to 50 μL per well. Plates were incubated overnight then treated with the bioconjugate at 37° C. for 72 hours and then a CellTiter-Glo assay was performed to measure cell viability. Samples were run in triplicate.
For orientation: In ATP-based viability assays light output follows the ATP content of the culture.

The test system of a further assay is SKOV3 cells. The experiment in a line: Cytotoxicity of AFP-ABZ982 and AFP-ABZ1827 bioconjugates, 4 day incubation. Particulars: read-out: Average IC50 SKOV3 cells (n = 1), 4 days. The procedure:
(§1) Bioconjugates containing ABZ981 with two different release functionalities (AFP-ABZ982 and AFP-ABZ1827) were subsequently prepared at DPRs of 2.5 to 6.3. Cells were incubated for 4 days in the presence of the compounds over an 8-point concentration range, with each concentration tested in triplicate. Two experiments performed using freshly thawed U937 cells gave similar results to U937 cells maintained in culture.

The subject of a further assay is U937 cells. The description is as above. Particulars: 4 days. The procedure: as §1
The mark [1] stands for this setting: freshly thawed cells, read-out: Average IC50 U937 freshly thawed cells (n = 2).
The mark [2] stands for this setting: read-out: Average IC50 U937 cultured cells (n = 1), cells maintained in culture.

In the case of `COc1cc2cc(c1-c1ccc(NC(=O)CCC(C)S)cc1)N(C)C(=O)C[C@H](OC(=O)C(C)C)[C@]1(C)O[C@H]1[C@H](C)[C@@H]1C[C@@](O)(NC(=O)O1)[C@H](OC)/C=C/C=C(\C)C2` (stereo partly drawn) [ABZ-981], the IC50 came out at 6.1 nM in the assay with COLO-205 cells; 5.53 nM in the assay with SKOV3 cells (Homo sapiens, SK-OV-3, 96 h); 3.06 nM with U937 cells (Homo sapiens, U-937, 96 h, read-out: Average IC50 U937 cultured cells (n = 1), cells maintained in culture); 2.84 nM with U937 cells (Homo sapiens, U-937, 96 h, freshly thawed cells, read-out: Average IC50 U937 freshly thawed cells (n = 2)).

B1: AFP-ABZ982 DPR 5.51: AFP-ABZ982 bioconjugate, average DPR 5.51 (conjugate, UniProt P02771 19-609, looked up)
Alpha-fetoprotein: RTLHRNEYGIASILDSYQCTAEISLADLATIFFAQFVQEATYKEVSKMVKDALTAIEKPTGDEQSSGCLENQLPAFLEELCHEKEILEKYGHSDCCSQSEEGRHNCFLAHKKPTPASIPLFQVPEPVTSCEAYEEDRETFMNKFIYEIARRHPFLYAPTILLWAARYDKIIPSCCKAENAVECFQTKAATVTKELRESSLLNQHACAVMKNFGTRTFQAITVTKLSQKFTKVNFTEIQKLVLDVAHVHEHCCRGDVLDCLQDGEKIMSYICSQQDTLSNKITECCKLTTLERGQCIIHAENDEKPEGLSPNLNRFLGDRDFNQFSSGEKNIFLASFVHEYSRRHPQLAVSVILRVAKGYQELLEKCFQTENPLECQDKGEEELQKYIQESQALAKRSCGLFQKLGEYYLQNAFLVAYTKKAPQLTSSELMAITRKMAATAATCCQLSEDKLLACGEGAADIIIGHLCIRHEMTPVNPGVGQCCTSSYANRRPCFSSLVVDETYVPPAFSDDKFIFHKDLCQAQGVALQTMKQEFLINLVKQKPQITEEQLEAVIADFSGLLEKCCQGQEQEVCFAEEGQKLISKTRAALGV
modifications: ABZ982 toxin conjugate, DPR 5.51
On to B1, for which the IC50 with SKOV3 cells was found to be 17.5 nM; with U937 cells (setting [1]), 1.71 nM; in the assay with U937 cells (setting [2]), 2.01 nM.

B2: AFP-ABZ1827 DPR 5.88: AFP-ABZ1827 bioconjugate, average DPR 5.88 (conjugate, UniProt P02771 19-609, looked up)
Alpha-fetoprotein: RTLHRNEYGIASILDSYQCTAEISLADLATIFFAQFVQEATYKEVSKMVKDALTAIEKPTGDEQSSGCLENQLPAFLEELCHEKEILEKYGHSDCCSQSEEGRHNCFLAHKKPTPASIPLFQVPEPVTSCEAYEEDRETFMNKFIYEIARRHPFLYAPTILLWAARYDKIIPSCCKAENAVECFQTKAATVTKELRESSLLNQHACAVMKNFGTRTFQAITVTKLSQKFTKVNFTEIQKLVLDVAHVHEHCCRGDVLDCLQDGEKIMSYICSQQDTLSNKITECCKLTTLERGQCIIHAENDEKPEGLSPNLNRFLGDRDFNQFSSGEKNIFLASFVHEYSRRHPQLAVSVILRVAKGYQELLEKCFQTENPLECQDKGEEELQKYIQESQALAKRSCGLFQKLGEYYLQNAFLVAYTKKAPQLTSSELMAITRKMAATAATCCQLSEDKLLACGEGAADIIIGHLCIRHEMTPVNPGVGQCCTSSYANRRPCFSSLVVDETYVPPAFSDDKFIFHKDLCQAQGVALQTMKQEFLINLVKQKPQITEEQLEAVIADFSGLLEKCCQGQEQEVCFAEEGQKLISKTRAALGV
modifications: ABZ1827 toxin conjugate, DPR 5.88
Consider B2, for which the IC50 with SKOV3 cells was determined as 35.6 nM; with U937 cells (setting [1]), 2.93 nM; in the assay on U937 cells (setting [2]), 2.04 nM.

B3: AFP-ABZ982 DPR 2.50: AFP-ABZ982 bioconjugate, average DPR 2.50 (conjugate, UniProt P02771 19-609, looked up)
Alpha-fetoprotein: RTLHRNEYGIASILDSYQCTAEISLADLATIFFAQFVQEATYKEVSKMVKDALTAIEKPTGDEQSSGCLENQLPAFLEELCHEKEILEKYGHSDCCSQSEEGRHNCFLAHKKPTPASIPLFQVPEPVTSCEAYEEDRETFMNKFIYEIARRHPFLYAPTILLWAARYDKIIPSCCKAENAVECFQTKAATVTKELRESSLLNQHACAVMKNFGTRTFQAITVTKLSQKFTKVNFTEIQKLVLDVAHVHEHCCRGDVLDCLQDGEKIMSYICSQQDTLSNKITECCKLTTLERGQCIIHAENDEKPEGLSPNLNRFLGDRDFNQFSSGEKNIFLASFVHEYSRRHPQLAVSVILRVAKGYQELLEKCFQTENPLECQDKGEEELQKYIQESQALAKRSCGLFQKLGEYYLQNAFLVAYTKKAPQLTSSELMAITRKMAATAATCCQLSEDKLLACGEGAADIIIGHLCIRHEMTPVNPGVGQCCTSSYANRRPCFSSLVVDETYVPPAFSDDKFIFHKDLCQAQGVALQTMKQEFLINLVKQKPQITEEQLEAVIADFSGLLEKCCQGQEQEVCFAEEGQKLISKTRAALGV
modifications: ABZ982 toxin conjugate, DPR 2.50
As for B3, the IC50 in the assay on SKOV3 cells was 56.1 nM; with U937 cells (setting [1]), 5.25 nM; in the assay on U937 cells (setting [2]) it was 5.22 nM.

B4: AFP-ABZ982 DPR 3.84: AFP-ABZ982 bioconjugate, average DPR 3.84 (conjugate, UniProt P02771 19-609, looked up)
Alpha-fetoprotein: RTLHRNEYGIASILDSYQCTAEISLADLATIFFAQFVQEATYKEVSKMVKDALTAIEKPTGDEQSSGCLENQLPAFLEELCHEKEILEKYGHSDCCSQSEEGRHNCFLAHKKPTPASIPLFQVPEPVTSCEAYEEDRETFMNKFIYEIARRHPFLYAPTILLWAARYDKIIPSCCKAENAVECFQTKAATVTKELRESSLLNQHACAVMKNFGTRTFQAITVTKLSQKFTKVNFTEIQKLVLDVAHVHEHCCRGDVLDCLQDGEKIMSYICSQQDTLSNKITECCKLTTLERGQCIIHAENDEKPEGLSPNLNRFLGDRDFNQFSSGEKNIFLASFVHEYSRRHPQLAVSVILRVAKGYQELLEKCFQTENPLECQDKGEEELQKYIQESQALAKRSCGLFQKLGEYYLQNAFLVAYTKKAPQLTSSELMAITRKMAATAATCCQLSEDKLLACGEGAADIIIGHLCIRHEMTPVNPGVGQCCTSSYANRRPCFSSLVVDETYVPPAFSDDKFIFHKDLCQAQGVALQTMKQEFLINLVKQKPQITEEQLEAVIADFSGLLEKCCQGQEQEVCFAEEGQKLISKTRAALGV
modifications: ABZ982 toxin conjugate, DPR 3.84
Take B4: the IC50 came to 35.5 nM in the assay on SKOV3 cells, 5.29 nM in the assay with U937 cells (setting [1]) and 4.49 nM with U937 cells (setting [2]).

B5: AFP-ABZ1827 DPR 3.35: AFP-ABZ1827 bioconjugate, average DPR 3.35 (conjugate, UniProt P02771 19-609, looked up)
Alpha-fetoprotein: RTLHRNEYGIASILDSYQCTAEISLADLATIFFAQFVQEATYKEVSKMVKDALTAIEKPTGDEQSSGCLENQLPAFLEELCHEKEILEKYGHSDCCSQSEEGRHNCFLAHKKPTPASIPLFQVPEPVTSCEAYEEDRETFMNKFIYEIARRHPFLYAPTILLWAARYDKIIPSCCKAENAVECFQTKAATVTKELRESSLLNQHACAVMKNFGTRTFQAITVTKLSQKFTKVNFTEIQKLVLDVAHVHEHCCRGDVLDCLQDGEKIMSYICSQQDTLSNKITECCKLTTLERGQCIIHAENDEKPEGLSPNLNRFLGDRDFNQFSSGEKNIFLASFVHEYSRRHPQLAVSVILRVAKGYQELLEKCFQTENPLECQDKGEEELQKYIQESQALAKRSCGLFQKLGEYYLQNAFLVAYTKKAPQLTSSELMAITRKMAATAATCCQLSEDKLLACGEGAADIIIGHLCIRHEMTPVNPGVGQCCTSSYANRRPCFSSLVVDETYVPPAFSDDKFIFHKDLCQAQGVALQTMKQEFLINLVKQKPQITEEQLEAVIADFSGLLEKCCQGQEQEVCFAEEGQKLISKTRAALGV
modifications: ABZ1827 toxin conjugate, DPR 3.35
Take B5: the IC50 stood at 66.4 nM in the assay with SKOV3 cells, 7.07 nM in the assay with U937 cells (setting [1]) and 5.52 nM in the assay on U937 cells (setting [2]).

B6: AFP-ABZ982 DPR 6.28: AFP-ABZ982 bioconjugate, average DPR 6.28 (conjugate, UniProt P02771 19-609, looked up)
Alpha-fetoprotein: RTLHRNEYGIASILDSYQCTAEISLADLATIFFAQFVQEATYKEVSKMVKDALTAIEKPTGDEQSSGCLENQLPAFLEELCHEKEILEKYGHSDCCSQSEEGRHNCFLAHKKPTPASIPLFQVPEPVTSCEAYEEDRETFMNKFIYEIARRHPFLYAPTILLWAARYDKIIPSCCKAENAVECFQTKAATVTKELRESSLLNQHACAVMKNFGTRTFQAITVTKLSQKFTKVNFTEIQKLVLDVAHVHEHCCRGDVLDCLQDGEKIMSYICSQQDTLSNKITECCKLTTLERGQCIIHAENDEKPEGLSPNLNRFLGDRDFNQFSSGEKNIFLASFVHEYSRRHPQLAVSVILRVAKGYQELLEKCFQTENPLECQDKGEEELQKYIQESQALAKRSCGLFQKLGEYYLQNAFLVAYTKKAPQLTSSELMAITRKMAATAATCCQLSEDKLLACGEGAADIIIGHLCIRHEMTPVNPGVGQCCTSSYANRRPCFSSLVVDETYVPPAFSDDKFIFHKDLCQAQGVALQTMKQEFLINLVKQKPQITEEQLEAVIADFSGLLEKCCQGQEQEVCFAEEGQKLISKTRAALGV
modifications: ABZ982 toxin conjugate, DPR 6.28
On to B6, for which the results for the IC50 in the assay on SKOV3 cells and in the assay on U937 cells (setting [2]) were 37 nM and 6.55 nM, respectively.

B7: AFP-ABZ1827 DPR 4.40: AFP-ABZ1827 bioconjugate, average DPR 4.40 (conjugate, UniProt P02771 19-609, looked up)
Alpha-fetoprotein: RTLHRNEYGIASILDSYQCTAEISLADLATIFFAQFVQEATYKEVSKMVKDALTAIEKPTGDEQSSGCLENQLPAFLEELCHEKEILEKYGHSDCCSQSEEGRHNCFLAHKKPTPASIPLFQVPEPVTSCEAYEEDRETFMNKFIYEIARRHPFLYAPTILLWAARYDKIIPSCCKAENAVECFQTKAATVTKELRESSLLNQHACAVMKNFGTRTFQAITVTKLSQKFTKVNFTEIQKLVLDVAHVHEHCCRGDVLDCLQDGEKIMSYICSQQDTLSNKITECCKLTTLERGQCIIHAENDEKPEGLSPNLNRFLGDRDFNQFSSGEKNIFLASFVHEYSRRHPQLAVSVILRVAKGYQELLEKCFQTENPLECQDKGEEELQKYIQESQALAKRSCGLFQKLGEYYLQNAFLVAYTKKAPQLTSSELMAITRKMAATAATCCQLSEDKLLACGEGAADIIIGHLCIRHEMTPVNPGVGQCCTSSYANRRPCFSSLVVDETYVPPAFSDDKFIFHKDLCQAQGVALQTMKQEFLINLVKQKPQITEEQLEAVIADFSGLLEKCCQGQEQEVCFAEEGQKLISKTRAALGV
modifications: ABZ1827 toxin conjugate, DPR 4.40
As for B7, the IC50 was 58.8 nM in the assay on SKOV3 cells, 5.98 nM with U937 cells (setting [1]) and 7.47 nM in the assay with U937 cells (setting [2]).
